Results reported in paper PMC11033526 (2023).
No end group written: not given here. *: point of attachment. Biotin = O=C1N[C@H]2[C@H](CS[C@H]2CCCCC(=O)*)N1

How the values were obtained:
mouse calmodulin [1] = biological target: T1, mouse calmodulin (mouse, UniProt P0DP26 1-149); assay: SPR; 1 mM EGTA (no Ca2+)
mouse calmodulin [2] = biological target: T1, mouse calmodulin; assay: SPR; 1 mM EGTA (no Ca2+); remark: listed apart in the source

## Biotin-GGSGGSPKCYMILFYPERNTSAYFNSMIQGYTMRKS [biotin-mT1r2 CT peptide (cytosolic C-terminal region of mouse taste receptor type 1 subunit 2)]
Mouse calmodulin [1]
  Kd: 9.7 µM
Mouse calmodulin [2]
  koff: 0.00207 s⁻¹
